System: Osteocalcin-/- mice born from Osteocalcin-/- mothers
Experiment: Osteocalcin injections in pregnant Osteocalcin-/- mothers (E0.5-E18.5): offspring behavior and brain histology
Assay type: in vivo, mouse
Procedure: FIG. 7. Maternal osteocalcin determines spatial learning and memory in adult offspring. (A-F) DLT (A), EPMT (B), OFT (C), FST (D), TST (E), and MWMT (F) performed in 3-month-old Ocn^−/− mice born from Ocn^−/− mothers injected once a day with vehicle or osteocalcin (240 ng/day) during pregnancy compared to WT mice. (G) Surface of the lateral ventricle over brain area (%) of E18.5 hippocampi coronal sections of WT embryos originating from WT mothers and Ocn^−/− embryos originating from osteocalcin-injected Ocn^−/− mothers. (H) Number of apoptotic cells (stained by TUNEL assay) of E18.5 hippocampi coronal sections of WT embryos originating from WT mothers and Ocn^−/− embryos originating from Ocn^−/− mothers injected with osteocalcin (240 ng/day). (I) Cresyl violet, NeuN immunofluorescence, and dentate gyms area (% versus WT) of WT and Ocn^−/− embryos originating from osteocalcin-injected Ocn^−/− mothers. Scale bars=0.5 mm.
Osteocalcin^−/−, Gprc6a^−/−, Osteocalcin-mCherry, and Osteocalcin floxed mice have been previously described (Ducy et al., 1996, Nature 382:448-452; Oury et al., 2011, Cell 144:796-809). Mouse genotypes were determined by PCR. For all experiments, controls were littermate female WT, Cre-expressing, or flox/flox. All mice were maintained on a pure 129-Sv genetic background except for the inducible deletion Osteocalcin model (mix background: 25% C57/BL6 and 75% 129sv). For inducible gene deletion mice, tamoxifen was prepared in corn oil and injected intraperitoneally (IP) (1 mg/20 g of body weight) over one week. For osteocalcin delivery to pregnant mice, IP injections (240 ng/day) were performed as soon as a plug was present daily until delivery (E0.5-E18.5). For osteocalcin or leptin infusion in adult Osteocalcin^−/− or ob/ob mice, pumps (Alzet micro-osmotic pump, Model 1002) delivering osteocalcin (300 ng/hr), leptin (50 ng/hr), or vehicle were surgically installed subcutaneously in the backs of 3-month old mice. For the postnatal rescue of cognitive functions in Osteocalcin^−/− mice, osteocalcin (10 ng/hour) or vehicle were delivered intrasubventricularly (icy) as previously described (Ducy et al., 2000, Cell 100:197-207). Leptin and osteocalcin content in sera and tissues were determined by ELISA.
Cresyl violet staining to visualize brain morphology was carried out by incubating 20 μm cryosections defatted with 1:1 chloroform:ethanol in cresyl violet acetate (1 g/L) overnight. The stain was differentiated using ethanol and xylene and mounted using DPX mounting medium for histology (Sigma).
To assess apoptosis in WT and Osteocalcin^−/− brains, 20 μm cryostat sections were processed using the APOPTAG® Fluorescein Direct In Situ Apoptosis Detection Kit (Millipore) according to manufacturer's protocol. Images were obtained using Leica DM 4000B, and Image J was used to quantify cell number and intensity of staining.
For western blotting, frozen hippocampi from E18.5 embryos were lysed and homogenized in 250 μl tissue lysis buffer (25 mM Tris HCl 7.5; 100 mM NaF; 10 mM Na4P2O7; 10 mmM EDTA; 1% NP 40). Samples were pooled together in threes by genotype to reduce variability. Proteins were transferred to nitrocellulose membranes and blocked with TBST-5% milk prior to overnight incubation with primary antibody in TBST-5% BSA. HRP-coupled secondary antibodies and ECL were used to visualize the signal.
To further evaluate the importance of maternal osteocalcin for the acquisition of spatial learning and memory in adult offspring, pregnant Osteocalcin^−/− mothers from E0.5 to E18.5 were treated with injections, once a day, of osteocalcin (240 ng/day). Osteocalcin was never injected in these females or their pups after delivery. […] Likewise, the number of apoptotic cells was reduced and the number of NeuN positive cells was increased compared to Osteocalcin^−/− embryos originating from Osteocalcin^−/− mothers that were not injected (FIG. 7I-J).

[1] = 240 ng/day once a day to pregnant Osteocalcin-/- mothers, E0.5 to E18.5

B1: uncarboxylated osteocalcin: Recombinant osteocalcin bacterially produced, cleaved from the GST subunit; completely undercarboxylated at all three sites (protein, listed as Homo sapiens)
chain: MRALTLLALLALAALCIAGQAGAKPSGAESSKGAAFVSKQEGSEVVKRPRRYLYQWLGAPVPYPDPLEPRREVCELNPDCDELADHIGFQEAYRRFYGPV
modifications: uncarboxylated
notes: Recombinant osteocalcin bacterially produced, cleaved from the GST subunit; completely undercarboxylated at all three sites
[1]
  anxiety or depression phenotypes of adult offspring: did not have any beneficial effect
  deficit in learning and memory of adult offspring: rescued over two third of their deficit
Injection of the pregnant Osteocalcin-/- mothers, 240 ng/day
  cerebral ventricle enlargement in brains of E18.5 Osteocalcin-/- embryos (cresyl violet): rescue of the cerebral ventricle enlargement
Mothers injected during pregnancy
  thickness defect in the CA3 and CA4 regions of the hippocampus in adult Osteocalcin-/- offspring: rescue of the thickness defect
Versus embryos from Osteocalcin-/- mothers not injected
  number of NeuN positive cells: increased
Versus embryos from Osteocalcin-/- mothers not injected, listed as Uncarboxylated osteocalcin
  number of apoptotic cells in E18.5 embryo hippocampus: prevent this neuronal apoptosis
Versus embryos from Osteocalcin-/- mothers not injected, listed as osteocalcin
  number of apoptotic cells in E18.5 embryo hippocampus: reduced
Versus embryos from mothers not injected
  Caspase-3 cleaved protein level in hippocampus of E18.5 embryos (Western blot): decrease
